Measurements as given in patent US11529390B2, “PCSK9 inhibitory polypolypeptides and methods of use” (INSTITUT DE CARDIOLOGIE DE MONTREAL, priority 2015, dated 2022).
Like-named read-outs stand apart in the source and are kept apart here. Ends that are not written are not given here. Peptide text beside a SMILES is read from it. * marks the point of attachment. Cbz = O=C(OCc1ccccc1)*

Assays:
[1] = tested on: PCSK9-induce degradation of LDLR; test: PCSK9-induced LDLR-EGFP degradation in GRP94 knockdown HEK293 cells with proteasome inhibitor; format: cell-based, human; conditions: 5 μM, HEK293, overnight
Method: FIG. 4: Knockdown of GRP94 increases LDLR degradation by PCSK9. At day 0, HEK293 cells were transfected either with a non-targeting siRNA (−) or with siRNAs against GRP94 (+). At day 1, cells were transfected with an empty vector (−) or with plasmids encoding for LDLR-EGFP (SEQ. ID. NO. 69) alone or in combination with PCSK9-mCherry (SEQ. ID. NO. 70). At day 2, cells were washed and incubated overnight with DMSO (−) or 5 μM MG132 overnight in complete media. (a) Total LDLR-EGFP, PCSK9-mCherry, GRP94 and β-actin protein levels were analyzed by immune-blotting in cell lysates as indicated. (b) LDLR-GFP and PCSK9-mCherry were visualized in live cells by confocal microscopy as conditions described above. Data are representative of at least three independent experiments.
To decipher the role of GRP94 on PCSK9, we took advantage of HEK293 cells, as they are easily transfectable in addition to be PCSK9-negative. (Seidah et al., 2003) Cells were transfected with either non-targeting siRNA (−) or with siRNAs against human GRP94 (+) and 24 h later without (−) or plasmids encoding for fluorescent PCSK9-mCherry or LDLR-EGFP (FIG. 4). Twenty-hours post cDNA transfections, cells were incubated either with vehicle (DMSO) or 5 μM MG132, a proteasome inhibitor.

[2] = target: PCSK9 binding to the LDLR EGFA domain (Homo sapiens, UniProt Q8NBP7); test: In vitro PCSK9-LDLR(EGFA) competitive assay, plate coated with LDLR-EGFA domain; conditions: 100 or 10 μM peptide, 100 ng wild-type human His-tagged PCSK9, pH6.1, 2 h
Chain of PCSK9 binding to the LDLR EGFA domain (Q8NBP7 153-692): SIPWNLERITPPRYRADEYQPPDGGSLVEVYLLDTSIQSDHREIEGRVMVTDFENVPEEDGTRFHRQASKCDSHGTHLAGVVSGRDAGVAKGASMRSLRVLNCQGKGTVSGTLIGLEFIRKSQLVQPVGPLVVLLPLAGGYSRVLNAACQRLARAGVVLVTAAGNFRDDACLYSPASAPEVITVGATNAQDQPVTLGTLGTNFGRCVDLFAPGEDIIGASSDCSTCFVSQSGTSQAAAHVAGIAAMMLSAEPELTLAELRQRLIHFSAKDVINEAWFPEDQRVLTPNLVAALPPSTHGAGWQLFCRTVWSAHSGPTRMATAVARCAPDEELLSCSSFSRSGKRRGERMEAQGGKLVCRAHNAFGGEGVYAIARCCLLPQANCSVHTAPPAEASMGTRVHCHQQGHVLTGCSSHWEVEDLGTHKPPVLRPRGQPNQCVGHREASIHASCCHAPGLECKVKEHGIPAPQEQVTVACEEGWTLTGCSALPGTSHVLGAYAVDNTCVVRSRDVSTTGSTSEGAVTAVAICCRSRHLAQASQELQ
Chain of PCSK9 binding to the LDLR EGFA domain (Q8NBP7 31-152 partner limits assumed): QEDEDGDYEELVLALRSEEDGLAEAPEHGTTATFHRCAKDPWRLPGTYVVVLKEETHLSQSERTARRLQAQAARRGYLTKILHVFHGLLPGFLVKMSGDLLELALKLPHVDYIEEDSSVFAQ
Method: SEQ ID. NO. 4 peptide was dissolved to 10 mM (working dilution) in DMEM media (Wisent Cat. #319-005-CL). In a total of 100 μl reaction buffer (HEPES buffer containing NaCl, CaCl2), BSA and proclin 300, pH6.1), SEQ ID. NO. 4 were added to a final concentration of 100 or 10 μM together with 100 ng wild-type human recombinant His-tagged PCSK9. Reaction buffer was added to 96 wells coated with recombinant LDLR-EGFA domain (involved in PCSK9-LDLR interaction) and incubated at room temperature for 2 h on an orbital microplate shaker (300 rpm). Following incubation, wells were washed 4 times with wash buffer and biotinylated anti-His-tag monoclonal antibody was added into each well and incubated for 1 h at room temperature. Following incubation wells were washed 4 times, and HRP-conjugated streptatvidin was added to each well and incubated for 20 min. Following 4 washes, 100 μl substrate reagent (TMB, tetra-methylbenzidine) were added for 15 min to each wells and enzymatic reaction stopped by adding 100 μl stop solution (1N […]). For each well, absorbance at 450 nm and 540 nm was measure and relative PCSK9 binding to LDLR-EGFA was determined according to a standard curve (100 ng to 1.56 ng). Inhibitory activities of SEQ ID. […]

[3] = target: T1, PCSK9-V5 (Homo sapiens, UniProt Q8NBP7); test: Co-immunoprecipitation of GRP94 constructs with PCSK9-V5 in transfected HEK293 cells; format: binding
T1 construct: Full-length human V5-tagged PCSK9 and LDLR were subcloned into pIRES2-EGFP; expressed in transfected cells; host or cells: HEK293
T1 sequence (Q8NBP7 153-692): as the sequence (Q8NBP7 153-692) above
Method: FIG. 2: Mapping of the PCSK9-GRP94 interacting domain. (a-b) HEK293 cells were transfected without (−) or with (+) PCSK9-V5 or SEQ ID NO. 66, 64 or 65. A PCSK9 V5 epitope-tag fusion protein (PCSK9-V5) was immune-precipitated from cell lysates using mAb-V5 antibody (IP: V5) and immune-blotted as indicated. Total GRP94 (SEQ. ID. NO. 3) and PCSK9 (SEQ. ID. NO. 1) protein levels were analyzed by immune-blotting in cell lysates (input) and conditioned media. (c) Left panel; HEK293 cells were transfected without (−) or with (+) PCSK9-V5, SEQ. ID. NO. 66 or 46. PCSK9-V5 was immune-precipitated for cell lysates (IP: V5) and immune-blotted (IB) as indicated. Total GRP94 and PCSK9 protein levels were also analyzed by immune-blotting and herein used as a control (input). Right panel; GRP94 homodimer (gray and yellow) crystal structure was determined from PDB file #2O1V using MacPymol software. […] 6 in which critical residues for PCSK9 binding determined in (b) are indicated in blue for SEQ. ID. NO. 64 and red for SEQ. ID. NO. 65. Data are representative of at least three independent experiments.
For identification of novel PCSK9 interactors, HepG2 or Huh-7 cells (55 cm2) were washed three times in phosphate-buffered saline (PBS) and incubated with 1 mM dithiobis[succinimidylpropionate] (DSP; Cat. #22585, Thermo Scientific), a thiol-cleavable cross-linking reagent, for 30 min at room temperature and subsequently switch for 15 min into a stop solution (15 mM Tris, pH 7.5). Cells were then lysed in complete radio-immune precipitation assay (RIPA) buffer (50 mM Tris/HCl, pH 8.0, 1% (v/v) Nonidet P40, 0.5% sodium deoxycholate, 150 mM NaCl and 0.1% (v/v) sodium dodecyl sulfate (SDS)) supplemented with a complete protease inhibitor mixture (Cat. #11 697 498 001, Roche Applied Science), passed 25 times through a 22-gauge needle and centrifuged at 11,000 g for 15 min at 4° C. Supernatants were incubated and rotated overnight with pre-immune serum, rabbit anti-hPCSK9 (amino acids 31-454) (1:250; Dr. Nabil Seidah, Clinical Research Institute of Montreal) or mouse anti-V5-tag (1:500; Cat. #R96025, Life Technologies) together with 50 μl protein A/G PLUS-agarose (Cat. #sc-2003, Santa Cruz). Following overnight incubation, beads were washed six times in RIPA buffer and resuspended in 75 μl Laemmli sample buffer. Co-immunoprecipitated (Co-IP) proteins were separated by 8% SDS-polyacrylamide gel electrophoresis and visualized using the Pierce silver stain kit (Cat. #24600, Thermo Scientific) according the manufacturer's instructions. All other Co-IP experiments were performed as described without the cross-linking step and in SDS-deprived RIPA buffer. HA-tagged proteins and GRP94 were immunoprecipitated with mouse anti-HA-tag (1:500; Cat. #H3663, Sigma-Aldrich) or rat anti-Grp94 (9G10, 1:1000; Cat. #ADI-SPA-850, Enzo Life Sciences).
We next decided to map GRP94 domain(s) important for PCSK9 protein-protein interaction. The overall domain structure of GRP94 includes a signal polypeptide (amino acids; aa1-21) followed by a N-terminal enzymatic ATP-binding domain (aa22-651), client-binding domain (CBD; aa652-678), C-terminal dimerization domain (aa679-799) and a KDEL polypeptide sequence (aa800-803) allowing retention of GRP94 in the endoplasmic reticulum. (Dollins et al., 2007; Maki et al., 1990; Wu et al., 2012) Thus, we first generated cDNA constructs encoding secretable HA-tagged forms of human GRP94 lacking its C-terminal KDEL polypeptide (SEQ ID. NO. 66; FIG. 2). HEK293 cells were transfected without or with SEQ ID. NO. 66 in absence or presence of PCSK9-V5 (FIG. 2a). […] NO. 66 is well expressed (Input; IB: HA) and secreted into media and that SEQ ID. NO. […] It was reported that a 27 aa C-terminal hydrophobic loop structure within GRP94 client-binding domain (CBD, amino acids aa652-678; ^652[…], SEQ ID. NO. 4) was important for folding and interaction with Toll-like receptors and integrins. (Wu et al., 2012) Deletion or alanine-scan mutations in SEQ ID. […]

[4] = tested on: LDLR degradation induced by overexpression of PCSK9; test: LDLR degradation after co-expression with PCSK9-V5 (intracellular pathway), immunoblot; format: cell-based, human
Method: FIG. 7: SEQ ID NO. 6 prevents PCSK9-induced LDLR degradation. (a) Left; Coomassie staining of purified recombinant SEQ ID NO. 6 and PCSK9 separated by SDS-PAGE is shown. Right; HepG2 cells were incubated in DMEM without or with 0, 25, 100 or 250 nM SEQ ID NO. 6 alone or in presence of recombinant PCSK9. (b) HepG2 cells were transfected without (−) or with PCSK9-V5 in absence (−) or presence SEQ ID NO. 66 or SEQ ID NO. 46. Total LDLR, PCSK9, SEQ ID NO. 66, SEQ ID NO. 46 and β-actin protein levels were analyzed by immunoblotting in cell lysates and conditioned media as indicated. Data are representative of at least three independent experiments.
We next tested whether SEQ ID. NO. 6 could alter the capacity of PCSK9 to induce LDLR degradation. HepG2 cells were incubated overnight with an increasing amount of recombinant SEQ ID. NO. 6 in absence or presence of exogenous PCSK9 (FIG. 7a). […] NO. […] Although that SEQ ID. NO. […] NO. […] (Poirier et al., 2009) As PCSK9 was also shown to induce LDLR degradation via an intracellular pathway, (Poirier et al., 2009) we evaluated to ability of SEQ ID. NO. 66 or SEQ ID. NO. 46 to neutralize PCSK9 in HepG2 cells following co-expression (FIG. 7b). Similar to the extracellular pathway (FIGS. 5b and 7a), both SEQ ID. NO. 66 and SEQ ID. NO. […] NO. 66 and specifically SEQ ID. NO. […]

CC(C)C[C@@H](C=O)NC(=O)[C@H](CC(C)C)NC(=O)[C@H](CC(C)C)NC(=O)OCc1ccccc1 [MG132] (Cbz-Leu-Leu-Leu-aldehyde)
Block of PCSK9-induced LDLR degradation after GRP94 knockdown [1]: not blocked

YGWSGNMERIMKAQAYQTGKDISTNYY (YGWSGNMERIMKAQAYQTGKDISTNYY-NH2) [SEQ ID. NO. 4]
Inhibition of binding of PCSK9 to the LDLR EGFA domain [2]: inhibit binding of PCSK9 to the LDLR EGFA domain | Inhibition of binding of PCSK9 to the LDLR EGFA domain ([2]; listed as SEQ. ID. NO. 4): inhibits binding of PCSK9 to the LDLR EGFA domain

B1: SEQ ID. NO. 66: secretable HA-tagged form of human GRP94 lacking its C-terminal KDEL sequence (protein)
chain: MRALWVLGLCCVLLTFGSVRADDEVDVDGTVEEDLGKSREGSRTDDEVVQREEEAIQLDGLNASQIRELREKSEKFAFQAEVNRMMKLIINSLYKNKEIFLRELISNASDALDKIRLISLTDENALSGNEELTVKIKCDKEKNLLHVTDTGVGMTREELVKNLGTIAKSGTSEFLNKMTEAQEDGQSTSELIGQFGVGFYSAFLVADKVIVTSKHNNDTQHIWESDSNEFSVIADPRGNTLGRGTTITLVLKEEASDYLELDTIKNLVKKYSQFINFPIYVWSSKTETVEEPMEEEEAAKEEKEESDDEAAVEEEEEEKKPKTKKVEKTVWDWELMNDIKPIWQRPSKEVEEDEYKAFYKSFSKESDDPMAYIHFTAEGEVTFKSILFVPTSAPRGLFDEYGSKKSDYIKLYVRRVFITDDFHDMMPKYLNFVKGVVDSDDLPLNVSRETLQQHKLLKVIRKKLVRKTLDMIKKIADDKYNDTFWKEFGTNIKLGVIEDHSNRTRLAKLLRFQSSHHPTDITSLDQYVERMKEKQDKIYFMAGSSRKEAESSPFVERLLKKGYEVIYLTEPVDEYCIQALPEFDGKRFQNVAKEGVKFDESEKTKESREAVEKEFEPLLNWMKDKALKDKIEKAVVSQRLTESPCALVASQYGWSGNMERIMKAQAYQTGKDISTNYYASQKKTFEINPRHPLIRDMLRRIKEDEDDKTVLDLAVVLFETATLRSGYLLPDTKAYGDRIERMLRLSLNIDPDAKVEEEPEEEPEETAEDTTEDTEQDEDEEMDVGTDEEEETAKESTAEYPYDVPDYA
Interaction (binding) with PCSK9 by co-immunoprecipitation [3]: interacts in complex with PCSK9 | Interaction (binding) with PCSK9 by co-immunoprecipitation ([3]; listed as SEQ. ID NO. 66): specifically binds to PCSK9 | Block of LDLR degradation induced by overexpression of PCSK9 [4]: significantly block
